US20250026815A1
Read-outs that look alike come from different tables or passages of the source.

What was measured:
[1] = target: RSV-F protein of RSV A Long virus (as carried by the live virus in the neutralisation assay) (human respiratory syncytial virus, strain A Long) (UniProt P12568); assay: cell-based or functional assay
[2] = target: RSV-F protein of RSV A2 virus (as carried by the live virus in the neutralisation assay) (human respiratory syncytial virus, strain A2) (UniProt P03420); assay: cell-based or functional assay
[3] = target: RSV-F protein of RSV B9320 virus (as carried by the live virus in the neutralisation assay) (human respiratory syncytial virus, strain B9320); assay: cell-based or functional assay
[4] = target: RSV-F protein of RSV A Long virus (as carried by the live virus in the neutralisation assay) (human respiratory syncytial virus, strain A Long) (UniProt P12568); assay: cell-based or functional assay; remark: listed apart in the source
[5] = target: RSV-F protein of RSV A2 virus (as carried by the live virus in the neutralisation assay) (human respiratory syncytial virus, strain A2) (UniProt P03420); assay: cell-based or functional assay; remark: listed apart in the source
[6] = target: RSV-F protein of RSV B9320 virus (as carried by the live virus in the neutralisation assay) (human respiratory syncytial virus, strain B9320); assay: cell-based or functional assay; remark: listed apart in the source
[7] = target: recombinant RSV-F protein (RSV A2 strain fusion (F) protein with added His tag) (human respiratory syncytial virus, A2 strain) (UniProt P03420); assay: SPR (Biacore), antibody captured, RSV-F as analyte
[8] = target: recombinant RSV-F protein (RSV A2 strain fusion (F) protein with added His tag) (human respiratory syncytial virus, A2 strain) (UniProt P03420); assay: SPR (Biacore), antibody captured, RSV-F as analyte; column head prints nM, Kd/Ka gives M

Sequence of RSV-F protein of RSV A2 virus (as carried by the live virus in the neutralisation assay) (human respiratory syncytial virus, strain A2) (P03420 26-574): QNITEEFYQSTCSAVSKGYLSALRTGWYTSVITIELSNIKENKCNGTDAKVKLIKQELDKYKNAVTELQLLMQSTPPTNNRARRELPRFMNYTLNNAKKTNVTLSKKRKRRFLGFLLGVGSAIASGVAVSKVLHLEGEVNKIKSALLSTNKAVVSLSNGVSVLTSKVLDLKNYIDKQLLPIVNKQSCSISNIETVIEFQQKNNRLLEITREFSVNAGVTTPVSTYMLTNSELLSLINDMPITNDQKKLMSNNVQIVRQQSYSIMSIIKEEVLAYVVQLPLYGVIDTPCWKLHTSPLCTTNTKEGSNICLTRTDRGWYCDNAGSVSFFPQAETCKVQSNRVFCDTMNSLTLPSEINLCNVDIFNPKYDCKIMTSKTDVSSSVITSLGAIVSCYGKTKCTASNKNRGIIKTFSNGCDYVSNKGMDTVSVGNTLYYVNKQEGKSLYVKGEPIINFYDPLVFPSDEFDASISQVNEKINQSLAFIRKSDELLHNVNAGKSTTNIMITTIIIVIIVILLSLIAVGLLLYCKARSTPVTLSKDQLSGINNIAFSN
Sequence of recombinant RSV-F protein (RSV A2 strain fusion (F) protein with added His tag) (human respiratory syncytial virus, A2 strain) (P03420 26-109, chain 1 of 2): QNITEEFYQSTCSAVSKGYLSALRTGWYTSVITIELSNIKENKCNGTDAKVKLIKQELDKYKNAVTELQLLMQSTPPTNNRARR
Sequence of recombinant RSV-F protein (RSV A2 strain fusion (F) protein with added His tag) (human respiratory syncytial virus, A2 strain) (P03420 137-524, chain 2 of 2): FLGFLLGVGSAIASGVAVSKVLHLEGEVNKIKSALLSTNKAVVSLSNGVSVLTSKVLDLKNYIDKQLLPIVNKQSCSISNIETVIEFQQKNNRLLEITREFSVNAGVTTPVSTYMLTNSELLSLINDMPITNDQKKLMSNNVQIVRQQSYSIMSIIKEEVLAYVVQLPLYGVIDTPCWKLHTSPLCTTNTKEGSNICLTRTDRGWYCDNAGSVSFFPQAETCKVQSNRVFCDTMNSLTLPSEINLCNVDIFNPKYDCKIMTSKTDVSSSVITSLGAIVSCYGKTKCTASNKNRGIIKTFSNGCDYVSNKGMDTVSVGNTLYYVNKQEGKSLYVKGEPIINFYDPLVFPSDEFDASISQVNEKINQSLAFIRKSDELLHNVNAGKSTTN

For Palivizumab (antibody), the Absolute IC50, neutralizing RSV A Long (HEp-2 cells, indirect ELISA) [1] was 232 ng/mL, the Absolute IC50, neutralizing RSV A2 (HEp-2 cells, indirect ELISA) [2] was 1060 ng/mL and the Absolute IC50, neutralizing RSV B9320 (HEp-2 cells, indirect ELISA) [3] was 1070 ng/mL. It also gave an Absolute IC50, neutralizing RSV A Long (HEp-2 cells, indirect ELISA) [4] of 1590 ng/mL, an Absolute IC50, neutralizing RSV A2 (HEp-2 cells, indirect ELISA) [5] of 3040 ng/mL and an Absolute IC50, neutralizing RSV B9320 (HEp-2 cells, indirect ELISA) [6] of 481 ng/mL. It also gave a kon [7] of 1.2e+06 M⁻¹ s⁻¹ and a Kd [8] of 0.0628 nM.
